For one molecule, lowest antigen concentration detectable by competition results are on record in patent US20140072592A1.

Ends that are not written are not given here. Some results are limits rather than exact numbers.

For this test, the target named is anti-SPAPP monoclonal antibody CM61. Briefly: competition EIA: SPAPP in 83% human plasma competes with plate-coated SPAPP for 10 ng/ml CM61.

B1: amyloid precursor protein signal peptide (SPAPP), …-COOH (peptide)
peptide: MLPGLALLLLAAWTARA-OH
B1 had a lowest antigen concentration detectable by competition greater than 200 pg/mL.
